# Assay results: patent US12559749B2, “Methods of rescuing stop codons via genetic reassignment with ACE-tRNA” (UNIVERSITY OF IOWA RESEARCH FOUNDATION, priority 2017, dated 2026)
# B1: Glychr19.trna2: top performing glycine ACE-tRNA UGA, SEQ ID NO: 53 (nucleic acid)
# chain: GCGUUGGUGGUAUAGUGGUUAGCAUAGCUGCCUUCAAAGCAGUUGACCCGGGUUCGAUUCCCGGCCAACGCA
# modifications: chemistry not given here
# Tested on: CFTR G542X
# Assay: Two-electrode voltage clamp of CFTR Cl- current in Xenopus oocytes, G542X
# Assay type: cell-based
# Method: FIGS. 20A-20D. Delivery of ACE-tRNA as small RNA supports robust suppression of G542X and W1282X nonsense mutations. FIG. 20A) CFTR cRNA with G542X or W1282X cystic fibrosis causing nonsense mutations was co-injected in Xenopus oocytes with serial dilutions of pre-folded ACE-tRNAGly and ACE-tRNATrp, respectively. Two-electrode voltage-clamp recordings of CFTR Cl— current were performed after 36 hrs. Current-voltage relationships illustrate that increasing amounts of FIG. 20B) ACE-tRNATrp and FIG. 20C) ACE-tRNAGly pre-folded RNA results in increased CFTR function (measured CFTR Cl— currents) with WT CFTR achieved in ACE-tRNAGly experiments. FIG. 20D) Dose response of G542X ACE-tRNAGly (filled circles) and W1282X ACE-tRNATrp (open squares) rescue (CFTR Cl— currents elicited at +40 mV were normalized to WT CFTR Cl— currents at +40 mV).
# In vitro cRNA transcription. G5-42XUGA, W1282XUGA, and WT CFTR pGEMHE (Mense et al., 2006; PMID:1703051) plasmids were linearized by 10× excess of NheI-HF restriction enzyme (site positioned 3′ of coding region)(New England BioLabs, USA) for 3 hrs at 37° C. and purified using standard cDNA precipitation methods. All cRNAs were transcribed using the mMessage mMachine T7 Kit (ThermoFisher Scientific, USA). Purification of the cRNA from the transcription reaction was conducted on columns from the RNeasy Mini Kit (Qiagen, Germany). Concentration was determined by absorbance measurements at 260 nm and quality was confirmed on a 1% agarose gel (RNase-free). All cRNA was queued to 1 μg/ml before use and all results were generated from ≥2:2 cRNA preparations.
# Expression in Xenopus laevis oocytes. Xenopus laevis oocytes (stage V and VI) were purchased from Ecocyte (Austin, TX). […]
# Two-electrode voltage clamp ([…]) recordings. CFTR Cl^− currents were recorded in ND96 bath solution that contained (in mM): 96 NaCl, 2 KCl, 1 MgCl2, and 5 HEPES (pH 7.5) in the presence of a maximal CFTR activation cocktail, forskolin (10 μM; adenylate cyclase activator) and 3-isobutyl-1-methylxanthine (1 mM; phosphodiesterase inhibitor). […]
molecule,measurement,setting,value
B1,Hill coefficient,dose response of G542X rescue,~1.4
same,level of CFTR function reached,normalized to WT CFTR Cl- currents,clear saturation at WT CFTR levels
same,EC50 of CFTR Cl- current rescue,"pre-folded ACE-tRNA RNA per oocyte, 36 hrs, currents at +40 mV normalized to WT CFTR",~20 ng
